According to paper PMC4861429 (The Journal of Biological Chemistry, 2016):

What was measured:
[1] = target: the molecule itself; assay: SEC; purified PAS2(611–729) compared with the marker carbonic anhydrase (29 kDa)
[2] = target: the molecule itself; assay: SEC; purified His6-tagged PAS1(23–168) compared with the markers BSA (66 kDa) and carbonic anhydrase (29 kDa)
[3] = target: the molecule itself; assay: not stated; the protein used for ITC is called 'the E146A mutant dimer'; how the dimer was shown for this mutant is not told
[4] = target: the molecule itself; assay: SEC-MALS; TodS(23–978) 1 mg/ml on Superdex G200, PBS pH 7.3 with 10% glycerol and 5 mM DTT, 0.25 ml/min, 25 °C
[5] = target: the molecule itself; assay: negative-stain electron microscopy with Ni-NTA gold labelling; Ni-NTA gold (5 nm) on C-terminal His6-tagged TodS(43–978), negatively stained with 1% uranyl acetate

B1: TodS PAS2 (residues 611–729) (domain or fragment, Pseudomonas putida F1, UniProt A5W4E3 611-729, looked up)
chain: SEARWKAVYENSAAGIVLTDPENRILNANPAFQRITGYGEKDLEGLSMEQLTPSDESPQIKQRLANLLQGGGAEYSVERSYLCKNGSTIWANASVSLMPQRVGESPVILQIIDDITEKK
notes: TodS sensor kinase of Pseudomonas putida F1, residues 611–729 (PAS2 domain); also called PAS2(611–729); source: E. coli BL21 Star (DE3), purified (Ni-NTA, TEV protease, SEC Superdex G75, second Ni-NTA); not shown: His6, N-terminal, cleaved
stoichiometry N [1]: 2

B2: dimerization helix-containing PAS1 (residues 23–168) of TodS (domain or fragment, Pseudomonas putida F1, UniProt A5W4E3 23-168, looked up)
chain: KEKGSEELTCEEHARIIFDGLYEFVGLLDAHGNVLEVNQVALEGGGITLEEIRGKPFWKARWWQISKKTEATQKRLVETASSGEFVRCDVEILGKSGGREVIAVDFSLLPICNEEGSIVYLLAEGRNITDKKKAEAMLALKNQELE
notes: TodS sensor kinase of Pseudomonas putida F1, residues 23–168 (PAS1 domain with the predicted dimerization helix); In pHis-Parallel1 (NcoI/XhoI), which has a TEV site after the His6 tag; the tag was not removed for this construct; The forward primer adds Met-Gly before Lys23; also called PAS1(23–168); WT PAS1(23–168); source: E. coli C41(DE3), purified (Ni-NTA only); not shown: His6, …
stoichiometry N [2]: 2

B3: W85H-PAS1(23–168) (domain or fragment, Pseudomonas putida F1, UniProt A5W4E3 23-168, looked up)
chain: KEKGSEELTCEEHARIIFDGLYEFVGLLDAHGNVLEVNQVALEGGGITLEEIRGKPFWKARWHQISKKTEATQKRLVETASSGEFVRCDVEILGKSGGREVIAVDFSLLPICNEEGSIVYLLAEGRNITDKKKAEAMLALKNQELE
notes: TodS sensor kinase of Pseudomonas putida F1, residues 23–168 with W85H; source: E. coli C41(DE3), purified (Ni-NTA only); not shown: His6, N-terminal, kept
stoichiometry N [2]: 2

B4: V59A-PAS1(23–168) (domain or fragment, Pseudomonas putida F1, UniProt A5W4E3 23-168, looked up)
chain: KEKGSEELTCEEHARIIFDGLYEFVGLLDAHGNVLEANQVALEGGGITLEEIRGKPFWKARWWQISKKTEATQKRLVETASSGEFVRCDVEILGKSGGREVIAVDFSLLPICNEEGSIVYLLAEGRNITDKKKAEAMLALKNQELE
notes: TodS sensor kinase of Pseudomonas putida F1, residues 23–168 with V59A; source: E. coli C41(DE3), purified (Ni-NTA only); not shown: His6, N-terminal, kept
stoichiometry N [2]: 2

B5: F46A-PAS1(23–168) (domain or fragment, Pseudomonas putida F1, UniProt A5W4E3 23-168, looked up)
chain: KEKGSEELTCEEHARIIFDGLYEAVGLLDAHGNVLEVNQVALEGGGITLEEIRGKPFWKARWWQISKKTEATQKRLVETASSGEFVRCDVEILGKSGGREVIAVDFSLLPICNEEGSIVYLLAEGRNITDKKKAEAMLALKNQELE
notes: TodS sensor kinase of Pseudomonas putida F1, residues 23–168 with F46A; source: E. coli C41(DE3), purified (Ni-NTA only); not shown: His6, N-terminal, kept
stoichiometry N [2]: 2

B6: E146A-PAS1(23–168) (domain or fragment, Pseudomonas putida F1, UniProt A5W4E3 23-168, looked up)
chain: KEKGSEELTCEEHARIIFDGLYEFVGLLDAHGNVLEVNQVALEGGGITLEEIRGKPFWKARWWQISKKTEATQKRLVETASSGEFVRCDVEILGKSGGREVIAVDFSLLPICNEEGSIVYLLAAGRNITDKKKAEAMLALKNQELE
notes: TodS sensor kinase of Pseudomonas putida F1, residues 23–168 with E146A; also called E146A mutant; source: E. coli C41(DE3), purified (Ni-NTA only); not shown: His6, N-terminal, kept
stoichiometry N [3]: 2

B7: F79Y-PAS1(23–168) (domain or fragment, Pseudomonas putida F1, UniProt A5W4E3 23-168, looked up)
chain: KEKGSEELTCEEHARIIFDGLYEFVGLLDAHGNVLEVNQVALEGGGITLEEIRGKPYWKARWWQISKKTEATQKRLVETASSGEFVRCDVEILGKSGGREVIAVDFSLLPICNEEGSIVYLLAEGRNITDKKKAEAMLALKNQELE
notes: TodS sensor kinase of Pseudomonas putida F1, residues 23–168 with F79Y; source: E. coli C41(DE3), purified (Ni-NTA only); not shown: His6, N-terminal, kept
stoichiometry N [2]: 2

B8: dimerization helix-containing TodS (residues 23–978) (enzyme, Pseudomonas putida F1, UniProt A5W4E3 23-978, looked up)
chain: KEKGSEELTCEEHARIIFDGLYEFVGLLDAHGNVLEVNQVALEGGGITLEEIRGKPFWKARWWQISKKTEATQKRLVETASSGEFVRCDVEILGKSGGREVIAVDFSLLPICNEEGSIVYLLAEGRNITDKKKAEAMLALKNQELEQSVECIRKLDNAKSDFFAKVSHELRTPLSLILGPLEAVMAAEAGRESPYWKQFEVIQRNAMTLLKQVNTLLDLAKMDARQMGLSYRRANLSQLTRTISSNFEGIAQQKSITFDTKLPVQMVAEVDCEKYERIILNLLSNAFKFTPDGGLIRCCLSLSRPNYALVTVSDSGPGIPPALRKEIFERFHQLSQEGQQATRGTGLGLSIVKEFVELHRGTISVSDAPGGGALFQVKLPLNAPEGAYVASNTAPRRDNPQVVDTDEYLLLAPNAENEAEVLPFQSDQPRVLIVEDNPDMRGFIKDCLSSDYQVYVAPDGAKALELMSNMPPDLLITDLIMPVMSGDMLVHQVRKKNELSHIPIMVLSAKSDAELRVKLLSESVQDFLLKPFSAHELRARVSNLVSMKVAGDALRKELSDQGDDIAILTHRLIKSRHRLQQSNIALSASEARWKAVYENSAAGIVLTDPENRILNANPAFQRITGYGEKDLEGLSMEQLTPSDESPQIKQRLANLLQGGGAEYSVERSYLCKNGSTIWANASVSLMPQRVGESPVILQIIDDITEKKQAQENLNQLQQQLVYVSRSATMGEFAAYIAHEINQPLSAIMTNANAGTRWLGNEPSNIPEAKEALARIIRDSDRAAEIIRMVRSFLKRQETVLKPIDLKALVTDTSLILKAPSQNNSVNLDVVADDELPEIWGDGVQIQQLIINLAMNAIEAISQADCETRQLTLSFSGNDTGDALVISVKDTGPGISERQMAQLFNAFYTTKKEGLGMGLAICLTITEVHNGKIWVECPPAGGACFLVSIPARQGSGT
notes: In pGST-Parallel1 (BamHI/XhoI); not shown: GST, N-terminal, cleaved
stoichiometry N [4]: 2

B9: TodS (residues 43–978), C-terminal His6-tagged (enzyme, Pseudomonas putida F1, UniProt A5W4E3 43-978, looked up)
chain: LYEFVGLLDAHGNVLEVNQVALEGGGITLEEIRGKPFWKARWWQISKKTEATQKRLVETASSGEFVRCDVEILGKSGGREVIAVDFSLLPICNEEGSIVYLLAEGRNITDKKKAEAMLALKNQELEQSVECIRKLDNAKSDFFAKVSHELRTPLSLILGPLEAVMAAEAGRESPYWKQFEVIQRNAMTLLKQVNTLLDLAKMDARQMGLSYRRANLSQLTRTISSNFEGIAQQKSITFDTKLPVQMVAEVDCEKYERIILNLLSNAFKFTPDGGLIRCCLSLSRPNYALVTVSDSGPGIPPALRKEIFERFHQLSQEGQQATRGTGLGLSIVKEFVELHRGTISVSDAPGGGALFQVKLPLNAPEGAYVASNTAPRRDNPQVVDTDEYLLLAPNAENEAEVLPFQSDQPRVLIVEDNPDMRGFIKDCLSSDYQVYVAPDGAKALELMSNMPPDLLITDLIMPVMSGDMLVHQVRKKNELSHIPIMVLSAKSDAELRVKLLSESVQDFLLKPFSAHELRARVSNLVSMKVAGDALRKELSDQGDDIAILTHRLIKSRHRLQQSNIALSASEARWKAVYENSAAGIVLTDPENRILNANPAFQRITGYGEKDLEGLSMEQLTPSDESPQIKQRLANLLQGGGAEYSVERSYLCKNGSTIWANASVSLMPQRVGESPVILQIIDDITEKKQAQENLNQLQQQLVYVSRSATMGEFAAYIAHEINQPLSAIMTNANAGTRWLGNEPSNIPEAKEALARIIRDSDRAAEIIRMVRSFLKRQETVLKPIDLKALVTDTSLILKAPSQNNSVNLDVVADDELPEIWGDGVQIQQLIINLAMNAIEAISQADCETRQLTLSFSGNDTGDALVISVKDTGPGISERQMAQLFNAFYTTKKEGLGMGLAICLTITEVHNGKIWVECPPAGGACFLVSIPARQGSGT
notes: In pET28b(+) (NcoI/XhoI); source: E. coli BL21 Star (DE3), purified (Ni-NTA, SEC Superdex G200); not shown: His6, C-terminal, kept
stoichiometry N [5]: 2
